Consider three molecules from US20250263490A1 (VIB VZW, published 2025).

As usually defined, the Kd is the equilibrium constant for the complex coming apart. By koff is commonly meant the first-order rate constant of dissociation. For orientation: kon means the rate constant with which the complex forms. By EC50 is commonly meant the concentration at which the effect is half-maximal.

Experiment [1] concerns the target T1, recombinant human domain 1-3His6 of the cation-independent mannose-6-phosphate receptor (human, UniProt P11717 41-467).
T1 construct: Biotinylated (NHS-PEG4-biotin) for BLI; Glycosylated; also called hDom1-3His6; hCI-M6PRD1-D3
Nature of the experiment: BLI at pH 7.4, 2nd of 2 repeats.

Experiment [2] concerns the target T1, recombinant human domain 1-3His6 of the …. The experiment in a line: BLI exp 2, dissoc pH 7.
For experiment [3] the target is unchanged. Nature of the experiment: ELISA on coated antigen, 2nd of 2 repeats. The protocol:
FIGS. 4A-4B. Affinity of anti-CI-M6PR VHHs for recombinant human CI-M6PR Domain 1-3His₆ determined by ELISA. A & B. Measurements for each of the 11 anti-CI-M6PR VHHs in serial dilution binding to the coated human CI-M6PR Domain 1-3His₆ antigen. Detection was performed using an anti-VHH antibody coupled to HRP, and measured as the absorbance of the TMB substrate at 450 nm, correlating to the amount of bound VHH as plotted at the Y-axis. The Log₁₀ concentrations of the serially diluted VHHs were plotted at the X-axis. […] A & B represent replicates but using a different concentration of human CI-M6PR Domain 1-3His₆ (in (FIG. 4A): 0-0.75 μM and in (FIG. 4B): 0-1 μM).
We evaluated the affinity of the VHHs against the hDom₁₋₃His₆ using ELISA. Coated hDom₁₋₃His₆ was incubated with serially diluted VHH that was afterwards detected using an anti-VHH antibody, coupled to HRP.
For orientation: In an ELISA, binding on a coated surface is turned into a signal by an enzyme label.

Experiment [4] shares this target. The experiment in a line: BLI exp 2, dissoc pH 6. The protocol:
(§1) For each of the 11 anti-CI-M6PR VHHs, a biolayer interferometry (BLI) experiment was performed in which the hDom₁₋₃His₆ was biotinylated and coupled to streptavidin biosensor tips. Afterwards, the tips were incubated with serially diluted VHHs during the association phase and dissociation was performed at pH 7.4. Similarly, dissociation was performed at pH 7.0, pH 6.0 and pH 5.0 as well after regeneration of the biosensor tips. […] The anti-CI-M6PR antibody (clone 2G11) and GBP were used as positive and negative controls, respectively.
(§2) Analysis of the binding kinetics was performed using an Octet Red96 (FortéBio) device with Streptavidin SA Biosensor tips (VWR, 733-2145). To this end, 1 mL of hCI-M6PR_D1-D3 (0.5 mg/mL in 50 mM MES, 150 mM NaCl, pH 6.5) was incubated at room temperature for 30 minutes with a two-fold molar excesses of EZ-Link™ NHS-PEG₄-Biotin (Thermo Fischer, A39259) and NaHCO₃ (100 mM, pH 8.3). Biotinylated hCIMPR_D1-D3 was purified using a Zeba spin desalting column (Thermo Fischer, 89890) and protein concentration was calculated by measuring the absorbance at 280 nm (extinction coefficient 50320 M¹ cm⁻¹). Two-fold biotin-labelled antigen was loaded on the tips (2.5 μg/mL) and subsequently dipped into a particular anti-CI-M6PR VHH-containing solution (ranging from 0-100 nM). Serial VHH dilutions were made in kinetics buffer (0.2 M Na₂HPO₄, 0.1 M Na⁺ citrate, 0.01% BSA, 0.002% Tween20, pH 7.4). After association (100 sec), dissociation was conducted (500 sec) for each anti-CI-M6PR VHH in the kinetics buffer, followed by biosensor regeneration in glycine (10 mM, pH 3) and neutralisation. The same cycle was repeated with dissociation performed in kinetics buffer of pH 7.0, 6.5, 6.0, 5.5, and 5.0.
(§3) A reference well and reference sensors were subtracted from ligand sensors afterwards and Savitsky-Golay filtering was applied on the data. Fitting of the data was performed using a 1:1 model, grouped per dissociation pH.

Experiment [5] has the same target. Nature of the experiment: BLI at pH 7.4, 1st of 2 repeats. The protocol: as §1
(§4) Analysis of the binding kinetics was performed using an Octet Red96 (FortéBio) device with Streptavidin SA Biosensor tips (VWR 733-2145). Therefore, 1 mL of human domain₁₋₃His₆ (0.5 mg/mL in 50 mM MES, 150 mM NaCl, pH 6.5) was incubated at room temperature for 30 minutes with EZ-Link™ NHS-PEG4-Biotin (1 mg) (Thermo Fischer A39259) and NaHCO₃ (100 mM). Biotinylated human domain₁₋₃His₆ was purified using a Zeba spin desalting Column™ (7K MWCO, 2 mL, Thermo Fischer 89890) and 1 μg/mL was used for immobilization on the Streptavidin SA Biosensor tips. The loaded tips were dipped into a particular anti-CI-M6PR VHH solution, serially diluted in kinetics buffer (0.2M NaH₂PO₄, 0.1M Na⁺ citrate, 0.01% BSA, 0.002% Tween20, pH 7.4). This was followed by dissociation of the particular anti-CI-M6PR VHH in kinetics buffer of pH 7.4, followed by regeneration in Glycine (10 mM, pH 3) and neutralisation. Same cycle was repeated but the dissociation was performed at pH 7.0, 6.0, 5.0, 4.5 and 4.0. A reference well and reference sensors were subtracted from ligand sensors afterwards and Savitsky-Golay filtering was applied on the data. Fitting of the data was performed using a 1:1 model, grouped per pH of dissociation.

The target is the same in experiment [6]. The experiment in a line: BLI exp 2, dissoc pH 5.5. The protocol: as §1, §2, §3
Experiment [7] has as its target human cation-independent mannose-6-phosphate receptor, native, on cells (human, UniProt P11717 41-2491). Nature of the experiment: cell-based or functional assay.
In experiment [8] the target is T1, recombinant human domain 1-3His6 of the …. The experiment in a line: BLI exp 2, dissoc pH 7.4. The protocol: as §1, §4
Experiment [9] has the same target. The experiment in a line: BLI exp 2, dissoc pH 5. The protocol: as §1, §2, §3

B1: anti-CI-M6PR VHH1 (VHH)
VHH: QVQLQESGGGLVQPGGSLRLSCVASGFTFDRYWMNWLRQIPGKEIEWVSTINTGGTGTYYDDSVKGRFSISRDDAKNTLYLTMNSLKTEDTAVYYCARGATYYRGNSAIRGQGTQVTVSS
notes: His6-tagged; made in Pichia pastoris, later also in E. coli WK6
B1: the dissociation constant Kd in experiment [1] was approximately 11.2 nM; in [5], 7.44 nM; in [8], approximately 11.2 nM. Besides, the dissociation rate constant (koff) in experiment [1] is 0.0099 s⁻¹; in experiment [2] it was 0.0021 s⁻¹; in experiment [4], 0.021 s⁻¹; in experiment [5], approximately 0.00606 s⁻¹; in experiment [6], 0.04 s⁻¹; in [8], 0.0099 s⁻¹. The off-rate (koff) in experiment [9] was found to be 0.072 s⁻¹. Moreover, the on-rate (kon) in [1] was 1e+06 M⁻¹ s⁻¹; in [2], 1.5e+06 M⁻¹ s⁻¹; in [4], 560000 M⁻¹ s⁻¹; in experiment [5] it was 814000 M⁻¹ s⁻¹; in experiment [6], 47000 M⁻¹ s⁻¹; in experiment [8], 1e+06 M⁻¹ s⁻¹. Further, in [3], the half-maximal effective concentration (EC50) turned out to be 19.4 nM. The “internalisation rate (live-cell imaging of AF488-VHH on MCF7 cells)” value (from here on “internalisation rate”) in experiment [7] is 1.38e+06 summed AF-voxels/minute.

B2: anti-CI-M6PR VHH7 (VHH)
VHH: QVQLQESGGGLVQPGGSLRLSCAASGIIFSDNRMDWYRQAPGKQREWVATLASYGWKTYADSVKGRFTISRDNTKNTVYLRMNSLKPEDTAVYYCKASSPVLNDIWGQGTQVTVSS
notes: His6-tagged (Pichia pastoris)
Take B2: the results for the Kd in experiment [1], in [5] and in [8] were 9.08 nM, 10.8 nM and 9.08 nM, respectively. The koff in experiment [1] was determined as 0.0118 s⁻¹; in [2], 0.013 s⁻¹; in [4] it was 0.028 s⁻¹; in experiment [5] it was 0.00999 s⁻¹; in [6], 0.027 s⁻¹; in experiment [8] it was 0.0118 s⁻¹. In experiment [9], the dissociation rate constant (koff) was determined as 0.055 s⁻¹. Further, the kon came to 1.3e+06 M⁻¹ s⁻¹ in experiment [1]; 130000 M⁻¹ s⁻¹ in experiment [2]; 40000 M⁻¹ s⁻¹ in [4]; 924000 M⁻¹ s⁻¹ in experiment [5]; 35000 M⁻¹ s⁻¹ in experiment [6]; 1.3e+06 M⁻¹ s⁻¹ in [8]. The on-rate constant (kon) in [9] came out at 55000 M⁻¹ s⁻¹. In addition, in experiment [3], the EC50 amounted to 1.19 nM. For the same molecule, the “internalisation rate” value in experiment [7] was 1.26e+06 summed AF-voxels/minute.

B3: anti-CI-M6PR VHH8 (VHH)
VHH: QVQLQESGGGLVQAGGSLRLSCEASGRTFNTYNWGWFRQAPGKEREFVAAIRWSSSKTSYADSVKGRFTISRDNAKNTIYLQMNSLKPEDTAVYYCAASIVDFTTNPSHFGSWGQGTQVTVSS
notes: His6-tagged (Pichia pastoris)
Regarding B3, the koff in experiment [1] was 0.00065 s⁻¹; in experiment [2], 0.000976 s⁻¹; in experiment [4], 0.0012 s⁻¹; in experiment [5], 0.000787 s⁻¹; in [6], 0.0025 s⁻¹; in experiment [8], 0.00065 s⁻¹. In [9], the koff is 0.084 s⁻¹. Besides, the on-rate constant (kon) in [2] came to 404000 M⁻¹ s⁻¹; in experiment [4], 1.3e+08 M⁻¹ s⁻¹; in experiment [5] it was 465000 M⁻¹ s⁻¹; in [6], 1.9e+08 M⁻¹ s⁻¹; in experiment [9] it was 2.4e+06 M⁻¹ s⁻¹. The EC50 in [3] is 0.165 nM. The Kd in [5] worked out at 1.69 nM. In [7], the “internalisation rate” value amounted to 673000 summed AF-voxels/minute.
